Measured values: patent US20210087522

Tests used:
[1] = target: T1, FNPCP, CP of an uncharacterized NRP gene cluster from Fischerella
T1 chain: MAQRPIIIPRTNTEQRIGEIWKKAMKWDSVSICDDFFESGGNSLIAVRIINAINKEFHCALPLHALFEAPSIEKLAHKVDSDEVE

[2] = target: T2, SsPCP, PCP of a thaxtomin cluster from Streptomyces scabiei 87.22
T2 chain: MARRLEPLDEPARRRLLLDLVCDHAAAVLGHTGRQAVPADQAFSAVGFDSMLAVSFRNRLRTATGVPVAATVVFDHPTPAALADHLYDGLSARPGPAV

[3] = target: T3, FisPCP, PCP of the shinorine gene cluster from Fischerella
T3 chain: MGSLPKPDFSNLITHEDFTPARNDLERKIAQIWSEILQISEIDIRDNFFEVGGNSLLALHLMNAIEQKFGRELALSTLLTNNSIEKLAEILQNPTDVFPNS

[4] = target: T4, MACP, CP of an uncharacterized NRP/PK gene cluster from M. aeruginosa NIES843
T4 chain: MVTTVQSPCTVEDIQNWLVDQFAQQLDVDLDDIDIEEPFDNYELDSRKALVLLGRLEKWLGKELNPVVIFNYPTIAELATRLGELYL

[5] = target: T5, APACP, ACP of the glycolipid PKS in Anabaena
T5 chain: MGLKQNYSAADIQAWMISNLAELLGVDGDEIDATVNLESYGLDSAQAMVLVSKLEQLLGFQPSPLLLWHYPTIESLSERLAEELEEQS

[6] = target: AprACP, ACP of the apratoxin (PK/NRP) gene cluster in Lyngbya sp.
[7] = target: T6, SFACP, ACP of the FAS from Synechocystis
T6 chain: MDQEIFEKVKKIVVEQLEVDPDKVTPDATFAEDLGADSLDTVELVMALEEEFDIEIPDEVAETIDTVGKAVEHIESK

[8] = target: T7, AFACP, ACP of the FAS from Anabaena
T7 chain: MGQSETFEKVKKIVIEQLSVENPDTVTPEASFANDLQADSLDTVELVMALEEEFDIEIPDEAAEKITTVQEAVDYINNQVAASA

[9] = target: T8, FNsACP, homolog of ArCPNp from Fischerella
T8 chain: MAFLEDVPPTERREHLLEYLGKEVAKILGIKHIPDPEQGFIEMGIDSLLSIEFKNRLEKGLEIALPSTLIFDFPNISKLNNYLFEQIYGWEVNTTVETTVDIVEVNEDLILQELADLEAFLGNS

[10] = target: ScACP, ACP of a putative concanamycin gene cluster from Streptomyces coelicolor A(3)2
[11] = target: T9, APNPCP, CP of an uncharacterized NRP/PK gene cluster from Anabaena
T9 chain: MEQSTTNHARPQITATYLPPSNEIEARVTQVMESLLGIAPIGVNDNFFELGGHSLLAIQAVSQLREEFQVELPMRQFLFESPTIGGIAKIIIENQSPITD

B1: AvPPT, Sfp-like phosphopantetheinyl transferase (PPTase) from Anabaena variabilis ATCC29413 (protein)
chain: MLQHTWLPKPPNLTLLSDEVHLWRIPLDRPESQLQHLAATLSSDELARANRFYFPEHRQRFTAGRGILRSILGLYLGVEPKQVKFEYESRGKPVLGDRFADSGLLFNLSHSQNLGLCAVNYTRQIGIDLEYLRPTSDLESLAKRFFLPREYELLRSLPDEQKQKIFFRYWTCKEAYLKATGDGIAKLEEIEIALTPTEPAKLQTTPAWSLLELVPDDNCVAAVAVAGFGWQPKFWQY
[1]
  phosphopantetheinylation of CP (apo to holo), LC-MS: APPT, AvPPT, MPPT and Sfp functionalized all substrates
[2]
  phosphopantetheinylation of CP (apo to holo), LC-MS: APPT, AvPPT, MPPT and Sfp functionalized all substrates
[3]
  phosphopantetheinylation of CP (apo to holo), LC-MS: APPT, AvPPT, MPPT and Sfp functionalized all substrates
[4]
  phosphopantetheinylation of CP (apo to holo), LC-MS: APPT, AvPPT, MPPT and Sfp functionalized all substrates
[5]
  phosphopantetheinylation of CP (apo to holo), LC-MS: APPT, AvPPT, MPPT and Sfp functionalized all substrates
[6]
  phosphopantetheinylation of CP (apo to holo), LC-MS: APPT, AvPPT, MPPT and Sfp functionalized all substrates
[7]
  phosphopantetheinylation of CP (apo to holo), LC-MS: APPT, AvPPT, MPPT and Sfp functionalized all substrates
[8]
  phosphopantetheinylation of CP (apo to holo), LC-MS: APPT, AvPPT, MPPT and Sfp functionalized all substrates
[9]
  phosphopantetheinylation of CP (apo to holo), LC-MS: APPT, AvPPT, MPPT and Sfp functionalized all substrates
[10]
  phosphopantetheinylation of CP (apo to holo), LC-MS: APPT, AvPPT, MPPT and Sfp functionalized all substrates
[11]
  phosphopantetheinylation of CP (apo to holo), LC-MS: APPT, AvPPT, MPPT and Sfp functionalized all substrates
